Publication PMC9474862

Target: APE1 WT (Homo sapiens) (UniProt P27695)
Experiment: EMSA
Settings: apparent Kd, 1 mM EDTA, EMSA: 20 nM NCP, 10 mM HEPES pH 7.5, 25 mM NaCl, 1 mM DTT, 0.1 mg/mL BSA, 5% native PAGE, 0.2x TBE, 4 °C (gel), binding temperature not stated

Sequence of UniProt P27695 (P27695 whole entry): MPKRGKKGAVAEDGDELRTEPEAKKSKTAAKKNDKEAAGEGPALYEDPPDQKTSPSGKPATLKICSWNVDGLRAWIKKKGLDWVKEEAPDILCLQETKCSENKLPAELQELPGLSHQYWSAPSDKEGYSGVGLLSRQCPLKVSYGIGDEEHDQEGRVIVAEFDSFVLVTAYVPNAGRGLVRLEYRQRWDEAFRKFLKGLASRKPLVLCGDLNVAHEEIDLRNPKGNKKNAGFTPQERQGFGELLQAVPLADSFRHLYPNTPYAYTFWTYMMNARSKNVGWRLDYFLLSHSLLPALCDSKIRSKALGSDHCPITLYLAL

Sequence “ATCGAGAATCCCGGTGCCGAGGCCGCTCAATTGGTCGTAGACAGCTCTAGCACCGCTTAAACGCACGTACGCNCTGTCCCCCGCGTTTTAACCGCCAAGGGGATTACTCCCTAGTCTCCAGGCACGTGTCAGATATATACATCCGAT / ATCGGATGTATATATCTGACACGTGCCTGGAGACTAGGGAGTAATCCCCTTGGCGGTTAAAACGCGGGGGACAGCGCGTACGTGCGTTTAAGCGGTGCTAGAGCTGTCTACGACCAATTGAGCGGCCTCGGCACCGGGATTCTCGAT [AP-NCP0]” has a Kd (one-site fit with ligand depletion, N in strand 1 = THF (AP site analog) at SHL0 (dyad), occluded) of 20 nM.
For “ATCGAGAATCCCGGTGCCGAGGCCGCTCAATTGGTCGTAGACAGCTCTAGCACCGCTTAAACGCACGTACGCGCTGTCCCCCGCGTTTTAACCGCCAAGGGGATTACTCCCTAGTCTCCAGGCACGTGTCAGATATATACATCCGAT (double strand) [ND-NCP]”, the Kd (nonspecific binding, no AP site) was 71 nM.
Sequence “ATCGAGAATCCCGGTGCCGAGGCCGCTCAATTGGTCGTAGACAGCTCTAGCACCGCTTAAACGCACGTACGCGCTGTCCCCCGCGTTTTAACCGCCAAGGGGATTACTCCCTAGTCTCCAGGCACGTGTCAGATATATNCATCCGAT / ATCGGATGTATATATCTGACACGTGCCTGGAGACTAGGGAGTAATCCCCTTGGCGGTTAAAACGCGGGGGACAGCGCGTACGTGCGTTTAAGCGGTGCTAGAGCTGTCTACGACCAATTGAGCGGCCTCGGCACCGGGATTCTCGAT [AP-NCP-6]” has a Kd (one-site fit with ligand depletion, N in strand 1 = THF (AP site analog) at SHL-6, solvent-exposed) of 17 nM.
“ATCGAGAATCCCGGTGCCGAGGCCGCTCAATTGGTCGTAGACAGCTCTAGCACCGCTTAAACGCACGTACGCGCTGTCCCCCGCGTTTTAACCGCCAAGGGGATTACTCCCTAGTCTCCAGGCACGTGTCAGATATATACATNCGAT / ATCGGATGTATATATCTGACACGTGCCTGGAGACTAGGGAGTAATCCCCTTGGCGGTTAAAACGCGGGGGACAGCGCGTACGTGCGTTTAAGCGGTGCTAGAGCTGTCTACGACCAATTGAGCGGCCTCGGCACCGGGATTCTCGAT [AP-NCP-6.5]” showed a Kd (one-site fit with ligand depletion, N in strand 1 = THF (AP site analog) at SHL-6.5, occluded) of 20 nM.
